The target in test [1] is T1, folate receptor beta (FR-β) (human, UniProt P14207 17-230).
T1 construct: whole, on cells; also called FR-β antigen; human FR-β antigen
Briefly: flow cytometry on FR-β gene-transfected B300-19 cells. (Flow cytometry measures light scatter and fluorescence of single cells or particles in a stream.)
Method: Using a mixture of 20 μl of lipofectamine (Gibco BRL), 1 μg of the purified pEF vector insert, and 1 ml of a Hank's balanced salt solution, the FR-β gene was transfected into B300-19 cells which were previously prepared at 1×10⁵ in 24 wells. […] Namely, 5×10⁵ B3001-9 cells were reacted with 0.1 ml of the FR-β antibody (1 mg/ml) at 4° C. for 30 minutes. The cells were washed 3 times with PBS containing 0.1% NaN₃ and 10% fetal calf serum, after which they were reacted with a fluorescence-labeled goat anti-mouse Ig antibody (BIOSOURCE) at 4° C. for 30 minutes. Then, the cells were washed twice with PBS containing 0.1% NaN₃ and 1% fetal calf serum, after which fluorescence of the cells was assayed using EPICS Elite (Coulter).

The target in test [2] is T2, folate receptor alpha (FR-α) (UniProt P15328 25-234, limits assumed).
T2 construct: whole, on cells
Briefly: flow cytometry on KB cells, fluorescence-labeled anti-mouse Ig.

T2 sequence (P15328 25-234 limits assumed): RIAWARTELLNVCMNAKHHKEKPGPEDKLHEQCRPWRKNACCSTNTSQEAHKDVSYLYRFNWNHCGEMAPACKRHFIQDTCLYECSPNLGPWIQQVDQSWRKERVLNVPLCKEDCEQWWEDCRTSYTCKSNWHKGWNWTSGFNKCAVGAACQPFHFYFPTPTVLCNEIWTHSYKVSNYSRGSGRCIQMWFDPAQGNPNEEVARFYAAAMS
T1 sequence (P14207 17-230): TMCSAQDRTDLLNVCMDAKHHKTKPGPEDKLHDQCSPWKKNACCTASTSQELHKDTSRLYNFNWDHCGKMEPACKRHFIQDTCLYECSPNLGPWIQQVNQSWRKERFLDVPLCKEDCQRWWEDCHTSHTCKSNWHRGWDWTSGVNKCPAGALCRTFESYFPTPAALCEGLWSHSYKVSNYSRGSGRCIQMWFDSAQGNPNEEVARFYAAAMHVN

B1: IgG-type FR-β monoclonal antibody clone 94b (antibody, V domains shown)
VH: EVQLQQSGAELVKPGASVRLSCTASGFNIKDTYMYWVKQRPEQGLEWIGRLDPANGNTRYDPKFQGKATITSDTSSNTAYLQLSSLTSEDTAVYYCAGDYPIIDYWGQGTTLTVSS
VL: DIVMSQSPSSLAVSAGEKVTMSCKSSQSLLNSRTRKTYLAWYQQKPGQSPKLLIYWASTRESGVPDRFTGSGSGTEFTLTISSVQAEDLAVYYCKQSYNLWTFGGGTKLEIKR
In the case of B1, the binding result in test [1] is “binds”; in test [2] it was “no binding”.

B2: IgG-type FR-β monoclonal antibody clone 36 (antibody, V domains shown)
VH: QVQLQQSGAELMKPGASLKISCKATGYTFSSYWIEWVKQRPGHGLQWIGEILPGSGSSNYNEKFKGKATFTADTSSNTAYMQLSSLTSEDSAVYYCARRGSSGSYFAMDYWGQGTSVTVSS
VL: DIQMTQSSSSFSVSLGDRVTITCKASEDIYNRLAWYQQKPGNAPRLLISGATSLETGVPLRFSGSGSGKDYTLSITSLQTEDIATYYCQQYWSTPWTFGGGTKLEIK
notes: also called clone 36 antibody; IgG monoclonal antibody against a human FR-β antigen (clone 36)
As for B2, the binding result in test [2] was “no binding”.

(Values after patent US20080260812A1 (TAKAMI MATSUYAMA C O KAGOSHIMA UNIVERSITY, published 2008).)
